To fix the notation:
B1: Hammerhead Ribozyme (parent)
chain: ACCGGAUGUGCUUUCCGGUCUGAUGAGUCCGUGAGGACGAAACAG

Variants of B1 are the subject of the data set. Description: self-cleavage, relative activity (ratio to wild type); higher = more cleavage; co-transcriptional.
Turning to ACCGGAUGGGCUUUCCGGUCUGAUGAGUCCGUGAGGACGAUACAG, the self-cleavage was found to be 0.306.
With ACCGGAUGGGCUUUCCGGUCUGAUGAGUCCGUGAGGACGACACAG, the self-cleavage was found to be 0.294.
The result for ACCGGAUGGGCUUUCCGGUCUGAUGAGUCCGUGAGGACGAGACAG reads 0.303; that for ACCGGAUGCGCUUUCCGGUCUGAGGAGUCCGUGAGGACGAAACAG, 0.948.
The result for ACCGGAUGCGCUUUCCGGUCUGAAGAGUCCGUGAGGACGAAACAG reads 1.29; that for ACCGGAUGCGCUUUCCGGUCUGACGAGUCCGUGAGGACGAAACAG, 0.94; that for ACCGGAUGCGCUUUCCGGUCUGAUGAGUCCGUGAAGACGAAACAG, 0.814.
Consider ACCGGAUGCGCUUUCCGGUCUGAUGAGUCCGUGAUGACGAAACAG, for which the self-cleavage was found to be 0.713.
Turning to ACCGGAUGCGCUUUCCGGUCUGAUGAGUCCGUGACGACGAAACAG, the self-cleavage worked out at 0.498.
Regarding ACCGGAUGGGGUUUCCGGUCUGAUGAGUCCGUGAGGACGAAACAG, the self-cleavage is 1.17.
The result for ACCGGAUGGGUUUUCCGGUCUGAUGAGUCCGUGAGGACGAAACAG reads 0.342.
For ACCGGAUGGGAUUUCCGGUCUGAUGAGUCCGUGAGGACGAAACAG the value was 1.47; for ACCGGAUGGGCUUUCCGGUCUGAUGUGUCCGUGAGGACGAAACAG, 0.344; for ACCGGAUGGGCUUUCCGGUCUGAUGGGUCCGUGAGGACGAAACAG, 0.345.
The result for ACCGGAUGGGCUUUCCGGUCUGAUGCGUCCGUGAGGACGAAACAG reads 0.32; that for ACCGGAUGCGCUUUCCGGUCUGAUGAUUCCGUGAGGACGAAACAG, 0.505; that for ACCGGAUGCGCUUUCCGGUCUGAUGACUCCGUGAGGACGAAACAG, 0.774.
Consider ACCGGAUGCGCUUUCCGGUCUGAUGAAUCCGUGAGGACGAAACAG, for which the self-cleavage turned out to be 0.973.
For ACCGGAUGCGCUUUCCGGUCUGAUGAGUCCGUGAGGACGAAAUAG the value was 0.38; for ACCGGAUGCGCUUUCCGGUCUGAUGAGUCCGUGAGGACGAAAGAG, 0.274.
For ACCGGAUGCGCUUUCCGGUCUGAUGAGUCCGUGAGGACGAAAAAG, the self-cleavage is 0.314.
For ACCGGAUGGGCUUUUCGGUCUGAUGAGUCCGUGAGGACGAAACAG the value was 0.842; for ACCGGAUGGGCUUUACGGUCUGAUGAGUCCGUGAGGACGAAACAG, 0.758; for ACCGGAUGGGCUUUGCGGUCUGAUGAGUCCGUGAGGACGAAACAG, 0.729.
ACCGGAUGCGCUUUCCGGUCUGAUGAGUCCGUGAGGAAGAAACAG: the self-cleavage was 0.618.
The result for ACCGGAUGCGCUUUCCGGUCUGAUGAGUCCGUGAGGAGGAAACAG reads 0.805; that for ACCGGAUGCGCUUUCCGGUCUGAUGAGUCCGUGAGGAUGAAACAG, 1.1.
Take ACCGGAUGCGCUUUCCGGUCUGAUGAGUCCGUGAGGACUAAACAG: the self-cleavage amounted to 0.264.
The result for ACCGGAUGCGCUUUCCGGUCUGAUGAGUCCGUGAGGACAAAACAG reads 0.313; that for ACCGGAUGCGCUUUCCGGUCUGAUGAGUCCGUGAGGACCAAACAG, 0.434; that for ACCGGAUGCGCUUUCCGGUCUGAUGAGUCCGUUAGGACGAAACAG, 1.24.
For ACCGGAUGCGCUUUCCGGUCUGAUGAGUCCGUCAGGACGAAACAG the value was 1.18; for ACCGGAUGCGCUUUCCGGUCUGAUGAGUCCGUAAGGACGAAACAG, 0.952.
For ACCGGAUGCGCUUUCCUGUCUGAUGAGUCCGUGAGGACGAAACAG the value was 0.897.
For ACCGGAUGCGCUUUCCAGUCUGAUGAGUCCGUGAGGACGAAACAG, the self-cleavage worked out at 0.754.
The result for ACCGGAUGCGCUUUCCCGUCUGAUGAGUCCGUGAGGACGAAACAG reads 0.354; that for ACCGGAUGCGCUUGCCGGUCUGAUGAGUCCGUGAGGACGAAACAG, 1.29; that for ACCGGAUGCGCUUCCCGGUCUGAUGAGUCCGUGAGGACGAAACAG, 0.518.
For ACCGGAUGCGCUUACCGGUCUGAUGAGUCCGUGAGGACGAAACAG the value was 0.872.
For ACCGGAUGCGCAUUCCGGUCUGAUGAGUCCGUGAGGACGAAACAG the value was 1.15; for ACCGGAUGCGCGUUCCGGUCUGAUGAGUCCGUGAGGACGAAACAG, 1.1; for ACCGGAUGCGCCUUCCGGUCUGAUGAGUCCGUGAGGACGAAACAG, 0.982.
Regarding ACCGGAUGCGCUUUCCGGUCUGAUGAGUCUGUGAGGACGAAACAG, the self-cleavage stood at 0.709.
As to ACCGGAUGCGCUUUCCGGUCUGAUGAGUCGGUGAGGACGAAACAG, the self-cleavage is 0.955.
ACCGGAUGCGCUUUCCGGUCUGAUGAGUCAGUGAGGACGAAACAG: the self-cleavage came to 0.902.
For ACCGGAUGCGCUUUCCGGUCUGAUGAGUCCGUGAGAACGAAACAG the value was 0.511; for ACCGGAUGCGCUUUCCGGUCUGAUGAGUCCGUGAGCACGAAACAG, 0.82.
Regarding ACCGGAUGCGCUUUCCGGUCUGAUGAGUCCGUGAGUACGAAACAG, the self-cleavage was determined as 0.683.
For ACCGGAUGCGCUUUCCGGUCGGAUGAGUCCGUGAGGACGAAACAG the value was 0.72.
The result for ACCGGAUGCGCUUUCCGGUCAGAUGAGUCCGUGAGGACGAAACAG reads 0.496.
For ACCGGAUGCGCUUUCCGGUCCGAUGAGUCCGUGAGGACGAAACAG the value was 0.718; for ACCGGAUGCGCUCUCCGGUCUGAUGAGUCCGUGAGGACGAAACAG, 0.843; for ACCGGAUGCGCUAUCCGGUCUGAUGAGUCCGUGAGGACGAAACAG, 1.18.
Regarding ACCGGAUGCGCUGUCCGGUCUGAUGAGUCCGUGAGGACGAAACAG, the self-cleavage stood at 0.946.
For ACCGGAUGGGCUUUCCGGUCUGAUGAGUCCGUGAGGACGAAUCAG the value was 0.28; for ACCGGAUGGGCUUUCCGGUCUGAUGAGUCCGUGAGGACGAACCAG, 0.303.
ACCGGAUGGGCUUUCCGGUCUGAUGAGUCCGUGAGGACGAAGCAG: the self-cleavage is 0.323.
